From paper PMC9618773 (iScience, 2022)

B1: full-length human steroid receptor coactivator-2 (natural protein)
chain: not shown

Assays:
[1] = biological target: T1, full-length human p300 (human, UniProt Q09472 1-2414); assay: cryo-EM structure
[2] = biological target: T1, full-length human p300; assay: pull-down
[3] = biological target: the molecule itself; assay: cryo-EM structure
[4] = biological target: B1; assay: cryo-EM structure
[5] = biological target: B1; assay: pull-down

T1 sequence (Q09472 whole entry): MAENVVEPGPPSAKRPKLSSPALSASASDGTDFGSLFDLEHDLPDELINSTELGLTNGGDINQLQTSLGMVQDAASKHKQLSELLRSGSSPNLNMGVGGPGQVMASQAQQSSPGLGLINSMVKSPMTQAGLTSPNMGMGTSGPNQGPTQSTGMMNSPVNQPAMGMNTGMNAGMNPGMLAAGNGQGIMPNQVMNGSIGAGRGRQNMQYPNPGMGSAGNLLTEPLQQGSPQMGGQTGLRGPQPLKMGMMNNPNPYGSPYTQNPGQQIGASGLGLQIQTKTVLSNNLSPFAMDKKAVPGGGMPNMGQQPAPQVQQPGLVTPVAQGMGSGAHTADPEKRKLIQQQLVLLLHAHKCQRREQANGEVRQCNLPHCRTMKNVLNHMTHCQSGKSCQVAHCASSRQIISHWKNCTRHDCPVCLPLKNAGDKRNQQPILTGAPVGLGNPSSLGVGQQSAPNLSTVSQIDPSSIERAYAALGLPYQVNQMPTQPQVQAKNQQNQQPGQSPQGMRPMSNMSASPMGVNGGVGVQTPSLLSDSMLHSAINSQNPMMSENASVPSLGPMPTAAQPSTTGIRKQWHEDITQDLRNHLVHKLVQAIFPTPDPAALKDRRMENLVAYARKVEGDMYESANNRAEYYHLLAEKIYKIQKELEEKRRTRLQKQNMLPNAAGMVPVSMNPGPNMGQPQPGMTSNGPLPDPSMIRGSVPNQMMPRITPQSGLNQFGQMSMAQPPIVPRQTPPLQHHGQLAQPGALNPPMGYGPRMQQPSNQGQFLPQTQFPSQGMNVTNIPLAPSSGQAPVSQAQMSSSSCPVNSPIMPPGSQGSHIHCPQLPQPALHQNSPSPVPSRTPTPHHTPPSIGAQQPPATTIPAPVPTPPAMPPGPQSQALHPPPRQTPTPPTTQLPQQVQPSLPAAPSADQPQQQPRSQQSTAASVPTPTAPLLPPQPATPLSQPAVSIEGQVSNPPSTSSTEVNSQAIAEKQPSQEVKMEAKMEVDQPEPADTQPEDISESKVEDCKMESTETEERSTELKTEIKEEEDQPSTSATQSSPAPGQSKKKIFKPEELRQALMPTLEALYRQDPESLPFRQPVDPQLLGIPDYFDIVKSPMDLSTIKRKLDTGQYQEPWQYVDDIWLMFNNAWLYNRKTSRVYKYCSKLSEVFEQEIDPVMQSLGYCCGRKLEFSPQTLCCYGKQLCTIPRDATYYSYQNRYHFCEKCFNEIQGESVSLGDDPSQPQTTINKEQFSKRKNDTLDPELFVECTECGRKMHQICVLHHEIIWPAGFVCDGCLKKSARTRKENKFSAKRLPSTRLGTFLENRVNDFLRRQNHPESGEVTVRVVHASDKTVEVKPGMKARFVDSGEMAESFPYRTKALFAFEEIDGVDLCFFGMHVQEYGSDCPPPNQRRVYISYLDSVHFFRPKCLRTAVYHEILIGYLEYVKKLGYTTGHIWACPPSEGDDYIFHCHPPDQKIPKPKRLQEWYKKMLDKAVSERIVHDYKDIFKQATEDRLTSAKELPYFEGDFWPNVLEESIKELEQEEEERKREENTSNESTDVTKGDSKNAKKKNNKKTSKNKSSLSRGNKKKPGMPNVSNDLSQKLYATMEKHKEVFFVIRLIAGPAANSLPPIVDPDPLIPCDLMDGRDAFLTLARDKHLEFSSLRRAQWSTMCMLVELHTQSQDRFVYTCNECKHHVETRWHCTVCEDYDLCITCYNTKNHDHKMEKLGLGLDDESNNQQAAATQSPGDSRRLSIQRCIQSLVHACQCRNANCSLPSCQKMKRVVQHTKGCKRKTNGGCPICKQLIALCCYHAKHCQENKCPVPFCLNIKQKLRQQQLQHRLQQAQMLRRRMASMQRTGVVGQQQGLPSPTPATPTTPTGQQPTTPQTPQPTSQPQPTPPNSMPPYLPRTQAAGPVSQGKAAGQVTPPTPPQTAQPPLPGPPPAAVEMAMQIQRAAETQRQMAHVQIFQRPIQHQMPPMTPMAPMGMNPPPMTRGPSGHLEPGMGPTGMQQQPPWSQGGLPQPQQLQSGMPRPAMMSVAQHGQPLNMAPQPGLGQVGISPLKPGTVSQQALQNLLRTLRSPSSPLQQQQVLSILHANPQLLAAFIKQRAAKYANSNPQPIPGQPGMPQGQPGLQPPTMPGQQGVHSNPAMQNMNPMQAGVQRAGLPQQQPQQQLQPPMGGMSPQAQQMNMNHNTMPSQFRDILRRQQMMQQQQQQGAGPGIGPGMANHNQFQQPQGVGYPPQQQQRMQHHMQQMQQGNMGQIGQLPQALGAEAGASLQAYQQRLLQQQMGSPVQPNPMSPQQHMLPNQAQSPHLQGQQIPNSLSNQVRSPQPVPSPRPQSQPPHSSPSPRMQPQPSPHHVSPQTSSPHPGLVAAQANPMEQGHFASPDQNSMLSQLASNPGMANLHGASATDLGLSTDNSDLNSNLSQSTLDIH

| Binder | binding result [1] | binding result [2] | other results |
| --- | --- | --- | --- |
| B1 | binds | – | – |
| GST-fused PR-B fragment LBD (688-933 aa, which contains the AF2) (domain or fragment, human, UniProt P06401 688-933, looked up) INLLMSIEPDVIYAGHDNTKPDTSSSLLTSLNQLGERQLLSVVKWSKSLPGFRNLHIDDQITLIQYSWMSLMVFGLGWRSYKHVSGQMLYFAPDLILNEQRMKESSFYSLCLTMWQIPQEFVKLQVSQEEFLCMKVLLLLNTIPLEGLRSQTQFEEMRSSYIRELIKAIGLRQKGVVSSSQRFYQLTKLLDNLHDLVKQLHLYCLNTFIQSRALSVEFPEMMSEVIAAQLPKILAGMVKPLLFHKK | – | binds | – |
| full-length human progesterone receptor-B (receptor, UniProt P06401 1-933, looked up) MTELKAKGPRAPHVAGGPPSPEVGSPLLCRPAAGPFPGSQTSDTLPEVSAIPISLDGLLFPRPCQGQDPSDEKTQDQQSLSDVEGAYSRAEATRGAGGSSSSPPEKDSGLLDSVLDTLLAPSGPGQSQPSPPACEVTSSWCLFGPELPEDPPAAPATQRVLSPLMSRSGCKVGDSSGTAAAHKVLPRGLSPARQLLLPASESPHWSGAPVKPSPQAAAVEVEEEDGSESEESAGPLLKGKPRALGGAAAGGGAAAVPPGAAAGGVALVPKEDSRFSAPRVALVEQDAPMAPGRSPLATTVMDFIHVPILPLNHALLAARTRQLLEDESYDGGAGAASAFAPPRSSPCASSTPVAVGDFPDCAYPPDAEPKDDAYPLYSDFQPPALKIKEEEEGAEASARSPRSYLVAGANPAAFPDFPLGPPPPLPPRATPSRPGEAAVTAAPASASVSSASSSGSTLECILYKAEGAPPQQGPFAPPPCKAPGASGCLLPRDGLPSTSASAAAAGAAPALYPALGLNGLPQLGYQAAVLKEGLPQVYPPYLNYLRPDSEASQSPQYSFESLPQKICLICGDEASGCHYGVLTCGSCKVFFKRAMEGQHNYLCAGRNDCIVDKIRRKNCPACRLRKCCQAGMVLGGRKFKKFNKVRVVRALDAVALPQPVGVPNESQALSQRFTFSPGQDIQLIPPLINLLMSIEPDVIYAGHDNTKPDTSSSLLTSLNQLGERQLLSVVKWSKSLPGFRNLHIDDQITLIQYSWMSLMVFGLGWRSYKHVSGQMLYFAPDLILNEQRMKESSFYSLCLTMWQIPQEFVKLQVSQEEFLCMKVLLLLNTIPLEGLRSQTQFEEMRSSYIRELIKAIGLRQKGVVSSSQRFYQLTKLLDNLHDLVKQLHLYCLNTFIQSRALSVEFPEMMSEVIAAQLPKILAGMVKPLLFHKK | binds | – | stoichiometry N [3]: 2; binding result [4]: binds |
| GST-fused PR-B fragment AF1 (401-546 aa) (domain or fragment, human, UniProt P06401 401-546, looked up) PRSYLVAGANPAAFPDFPLGPPPPLPPRATPSRPGEAAVTAAPASASVSSASSSGSTLECILYKAEGAPPQQGPFAPPPCKAPGASGCLLPRDGLPSTSASAAAAGAAPALYPALGLNGLPQLGYQAAVLKEGLPQVYPPYLNYLR | – | binds | binding result [5]: binds |
| GST-fused PR-B fragment AF3 (1-170 aa) (domain or fragment, human, UniProt P06401 1-170, looked up) MTELKAKGPRAPHVAGGPPSPEVGSPLLCRPAAGPFPGSQTSDTLPEVSAIPISLDGLLFPRPCQGQDPSDEKTQDQQSLSDVEGAYSRAEATRGAGGSSSSPPEKDSGLLDSVLDTLLAPSGPGQSQPSPPACEVTSSWCLFGPELPEDPPAAPATQRVLSPLMSRSGC | – | binds | – |
